Non-standard residues stand in square brackets, D forms with d. No end group written: not given here. Dip = N[C@H](C(=O)O)C(c1ccccc1)c1ccccc1
Tests used:
[1] = target: 175Cys-Fab (meditope-enabled trastuzumab Fab with Ala175 of the heavy chain changed to cysteine); experiment: cross-linking
[2] = target: 175Cys-IgG1 (meditope-enabled trastuzumab IgG1 with Ala175 of the heavy chain changed to cysteine); experiment: disulfide conjugation, dye-antibody ratio

stoichiometry N (meditope per Fab) [1] | stoichiometry N [2] | Binder
1 | – | SQFD[Dip]CTRRLQSGGSK [SQFDA(Ph)2… meditope]
– | 1.8 dyes per IgG | SQFD[Dip]CTRRLQSGGSK-Alexa647 [SQFDA(Ph)2…-Alexa647 meditope]

Reference: paper PMC6823927
